Tests used:
[1] = target: soluble human C3b (human) (UniProt P01024)
human C4b (human) = target: T1, human C4b (human) (UniProt P0C0L5)
T1 sequence: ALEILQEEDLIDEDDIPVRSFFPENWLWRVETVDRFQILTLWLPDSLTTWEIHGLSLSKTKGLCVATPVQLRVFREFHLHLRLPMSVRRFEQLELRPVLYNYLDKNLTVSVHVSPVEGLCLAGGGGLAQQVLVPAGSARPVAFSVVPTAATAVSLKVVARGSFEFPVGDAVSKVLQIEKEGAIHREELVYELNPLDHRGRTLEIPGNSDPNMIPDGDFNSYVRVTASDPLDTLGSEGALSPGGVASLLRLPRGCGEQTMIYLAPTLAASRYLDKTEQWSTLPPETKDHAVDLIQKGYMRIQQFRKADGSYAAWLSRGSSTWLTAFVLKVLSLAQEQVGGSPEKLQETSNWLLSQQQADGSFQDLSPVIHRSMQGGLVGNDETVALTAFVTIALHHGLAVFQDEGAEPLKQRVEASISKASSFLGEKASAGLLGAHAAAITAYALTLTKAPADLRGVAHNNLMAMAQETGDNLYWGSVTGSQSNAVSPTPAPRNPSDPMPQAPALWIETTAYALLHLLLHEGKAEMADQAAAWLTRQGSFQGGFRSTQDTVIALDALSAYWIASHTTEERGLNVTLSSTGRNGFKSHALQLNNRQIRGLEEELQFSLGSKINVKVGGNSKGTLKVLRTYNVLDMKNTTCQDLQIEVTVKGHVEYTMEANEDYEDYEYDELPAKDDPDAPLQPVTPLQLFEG

Δ(K1-P305); GGSSGG (SEQ ID NO: 6); fH_CCP1-4 (enzyme), sequence (chain): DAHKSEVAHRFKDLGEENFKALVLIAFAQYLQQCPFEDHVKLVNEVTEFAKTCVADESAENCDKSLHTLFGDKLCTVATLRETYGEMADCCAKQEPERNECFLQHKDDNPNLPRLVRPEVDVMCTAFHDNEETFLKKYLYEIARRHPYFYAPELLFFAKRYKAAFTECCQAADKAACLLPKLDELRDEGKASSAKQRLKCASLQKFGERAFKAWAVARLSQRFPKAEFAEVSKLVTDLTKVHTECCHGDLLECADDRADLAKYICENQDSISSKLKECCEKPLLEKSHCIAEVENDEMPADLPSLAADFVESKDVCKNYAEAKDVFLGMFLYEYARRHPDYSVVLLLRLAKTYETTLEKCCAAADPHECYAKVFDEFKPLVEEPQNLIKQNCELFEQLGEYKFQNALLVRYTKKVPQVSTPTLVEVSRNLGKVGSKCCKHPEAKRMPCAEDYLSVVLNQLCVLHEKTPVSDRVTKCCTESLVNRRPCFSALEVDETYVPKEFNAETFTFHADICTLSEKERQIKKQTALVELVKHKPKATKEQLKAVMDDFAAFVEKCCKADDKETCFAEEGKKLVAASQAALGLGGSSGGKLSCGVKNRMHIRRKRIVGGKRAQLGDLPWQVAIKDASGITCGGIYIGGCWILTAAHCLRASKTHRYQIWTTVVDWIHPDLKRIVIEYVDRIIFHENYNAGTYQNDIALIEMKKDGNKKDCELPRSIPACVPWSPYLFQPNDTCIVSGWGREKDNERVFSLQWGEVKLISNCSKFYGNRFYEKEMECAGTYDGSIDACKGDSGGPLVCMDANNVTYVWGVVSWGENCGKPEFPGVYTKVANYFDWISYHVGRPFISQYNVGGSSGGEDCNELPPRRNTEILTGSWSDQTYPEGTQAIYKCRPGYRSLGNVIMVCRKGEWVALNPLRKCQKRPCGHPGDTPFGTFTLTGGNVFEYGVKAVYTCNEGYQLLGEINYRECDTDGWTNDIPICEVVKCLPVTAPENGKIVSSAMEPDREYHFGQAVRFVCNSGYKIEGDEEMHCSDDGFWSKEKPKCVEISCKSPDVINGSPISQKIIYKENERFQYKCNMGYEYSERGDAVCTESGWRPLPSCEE

Row | iC3b Screen Ref Fold (fold vs CFI-HSA wild type) [1] | C4b Screen Ref Fold (fold vs CFI-HSA wild type) (human C4b (human)) | Substance | other results
1 | 0.06 |  | CFI-HSA variant N446Q; N476Q; N518Q (enzyme) | 
2 | 0.03 | 0.01 | CFI-HSA V540G (enzyme) | 
3 | 0.39 | 0.31 | CFI-HSA variant I322V; V323I (enzyme) | 
4 | 0.93 | 0.67 | CFI-HSA Y553L (enzyme) | 
5 | 0.03 | 0.02 | CFI-HSA R365D (enzyme) | 
6 |  |  | CFI-HSA variant Y408L; E457G; N531G; WT; GGSSGG (SEQ ID NO: 6); CR1(ccp15-17) (from UniProt P17927) (enzyme) | C4b Screen Ref Fold (fold of CFI-HSA wild type) (human C4b (human)): 3.65; iC3b Screen Ref Fold (fold of CFI-HSA wild type) [1]: 0.1
7 | 0.84 | 1.1 | CFI-HSA D549Q (enzyme) | 
8 | 0.04 | 0.15 | Δ(K1-P305); GGSSGG (SEQ ID NO: 6); fH_CCP1-4 (enzyme) | 
9 | 0.3 | 1.16 | CFI-HSA R365I (enzyme) | 
10 |  |  | CFI-HSA variant E457G; P535G; WT; GGSSGG (SEQ ID NO: 6); CR1(ccp15-17) (from UniProt P17927) (enzyme) | C4b Screen Ref Fold (fold of CFI-HSA wild type) (human C4b (human)): 3.89; iC3b Screen Ref Fold (fold of CFI-HSA wild type) [1]: 0.07
11 | 0.64 |  | CFI-HSA variant K504Q (enzyme) | 
12 |  |  | CFI-HSA variant Y408L; E457G; P535G; K534Q (enzyme) | C4b Screen Ref Fold (fold of CFI-HSA wild type) (human C4b (human)): 1.43; iC3b Screen Ref Fold (fold of CFI-HSA wild type) [1]: 0.53
13 | 0.11 | 0.25 | WT; GGSSGG (SEQ ID NO: 6); CCP_1-4; GGSS(6) + G; compstatin (enzyme) | 
14 |  |  | CFI-HSA variant S552G; V565I (enzyme) | C4b Screen Ref Fold (fold of CFI-HSA wild type) (human C4b (human)): 1.23; iC3b Screen Ref Fold (fold of CFI-HSA wild type) [1]: 1.58
15 | 0.27 | 0.52 | CFI-HSA D549R (enzyme) | 
16 | 2.31 | 4.38 | CFI-HSA T377G; E457G (enzyme) | 
17 | 0.2 | 0.1 | CFI-HSA D549L (enzyme) | 
18 | 1.08 | 0.23 | CFI-HSA K424E (enzyme) | 
19 | 1.44 | 0.32 | CFI-HSA K424G (enzyme) | 

Row | iC3b Screen Ref Fold (fold vs CFI-HSA wild type) [1] | C4b Screen Ref Fold (fold vs CFI-HSA wild type) (human C4b (human)) | Substance | other results
20 | 0.15 | 2.27 | CFI-HSA R557L (enzyme) | 
21 |  |  | CFI-HSA variant V565I; P558S (enzyme) | C4b Screen Ref Fold (fold of CFI-HSA wild type) (human C4b (human)): 1.41; iC3b Screen Ref Fold (fold of CFI-HSA wild type) [1]: 0.85
22 |  |  | CFI-HSA variant Δ(S308) (enzyme) | C4b Screen Ref Fold (fold relative to CFI-HSA wild type) (human C4b (human)): 0.21; iC3b Screen Ref Fold (fold relative to CFI-HSA wild type) [1]: -0.01
23 |  |  | CFI-HSA variant F559Y (enzyme) | C4b Screen Ref Fold (fold relative to CFI-HSA wild type) (human C4b (human)): 0.66; iC3b Screen Ref Fold (fold relative to CFI-HSA wild type) [1]: 1.23
24 | 0.37 | 0.2 | CFI-HSA variant K326A-R327A (enzyme) | 
25 | 0.64 | 0.23 | CFI-HSA R365F (enzyme) | 
26 | 0.02 |  | CFI-HSA variant Y408D (enzyme) | 
27 | 0.43 | 1.25 | CFI-HSA R365V (enzyme) | 
28 | 0.05 | 0.14 | CFI-HSA variant Δ(K1-P305); Y408L; N531G (enzyme) | 
29 | 0.07 | 0.18 | CFI-HSA R365P (enzyme) | 
30 | 0.04 | 0.13 | CFI-HSA variant S507A (enzyme) | 
31 |  |  | CFI-HSA variant V565I (enzyme) | C4b Screen Ref Fold (fold of CFI-HSA wild type) (human C4b (human)): 1.11; iC3b Screen Ref Fold (fold of CFI-HSA wild type) [1]: 1.25
32 | 0.5 | 0.56 | CFI-HSA R365A (enzyme) | 
33 | 0.04 | 3 | CFI-HSA R557P (enzyme) | 
34 | 0.67 | 1.67 | CFI-HSA variant R327P (enzyme) | 
35 | 0.27 | 0.05 | CFI-HSA variant Y408G (enzyme) | 
36 | 2.47 | 0.66 | CFI-HSA variant N85Q (enzyme) | 
37 |  |  | CFI-HSA variant E487A; K14A (enzyme) | C4b Screen Ref Fold (fold of CFI-HSA wild type) (human C4b (human)): 0.87; iC3b Screen Ref Fold (fold of CFI-HSA wild type) [1]: 1.71
38 | 1.95 | 1.05 | CFI-HSA Y408L; D425R; E530Y (enzyme) | 

Row | iC3b Screen Ref Fold (fold vs CFI-HSA wild type) [1] | C4b Screen Ref Fold (fold vs CFI-HSA wild type) (human C4b (human)) | Substance | other results
39 | 0.69 | 1.49 | fH_CCP1-4; GGSS(11); wt hCFI (enzyme) | 
40 |  |  | CFI-HSA variant Y408E (enzyme) | iC3b Screen Ref Fold (fold of reference) [1]: 0.23
41 | 0.33 | 0.31 | CFI-HSA K423D (enzyme) | 
42 |  |  | CFI-HSA variant Y408L; P535G; WT; GGSSGG (SEQ ID NO: 6); CR1(ccp15-17) (from UniProt P17927) (enzyme) | C4b Screen Ref Fold (fold of CFI-HSA wild type) (human C4b (human)): 3.01; iC3b Screen Ref Fold (fold of CFI-HSA wild type) [1]: 0.03
43 | 0.89 | 0.29 | CFI-HSA K424V (enzyme) | 
44 | 1.05 | 0.33 | CFI-HSA K424P (enzyme) | 
45 | 0.22 | 0.11 | CFI-HSA P535G; E530Y (enzyme) | 
46 | 1.09 | 0.77 | CFI-HSA Y553Q (enzyme) | 
47 | 0.13 | 4.44 | CFI-HSA E457G; E461Q; F464Y; N531G; GGSSGG (SEQ ID NO: 6); CR1 (ccp15-17) (from UniProt P17927) (enzyme) | 
48 | 0.69 | 0.15 | CFI-HSA K423G (enzyme) | 
49 |  |  | CFI-HSA variant P558S; F559L (enzyme) | C4b Screen Ref Fold (fold of CFI-HSA wild type) (human C4b (human)): 0.9; iC3b Screen Ref Fold (fold of CFI-HSA wild type) [1]: 0.54
50 |  |  | CFI-HSA variant T346R; K504E; E530R (enzyme) | iC3b Screen Ref Fold (fold of reference) [1]: 0.51
51 | 0.03 |  | CFI-HSA variant Y4081 (enzyme) | 
52 | 0.65 |  | CFI-HSA variant Y408K (enzyme) | 
53 |  |  | CFI-HSA variant Y408V (enzyme) | iC3b Screen Ref Fold (fold of reference) [1]: 0
54 | 0.03 |  | CFI-HSA variant I317D-R318D-R319D-K320D-R321K (enzyme) | 
55 |  |  | CFI-HSA variant Y408W (enzyme) | iC3b Screen Ref Fold (fold of reference) [1]: 0.82
56 | 0.04 |  | CFI-HSA variant Y408T (enzyme) | 
